Assay results: paper PMC8167055

Experiments:
LC3B (Homo sapiens) = LC3B (Homo sapiens) (UniProt Q9GZQ8); details: cited from earlier work
[1] = biological target: LC3B fused with mCherry (microtubule-associated protein light chain 3) (human) (UniProt Q9GZQ8); experiment: ELISA; plate coated with 5 μg/ml mCherry-LC3B in PBS, blocked with BSA; serial dilutions of TPPP/p25 forms or SYN; detected by TPPP/p25 or SYN antibodies; apparent Kd from hyperbola with a single binding site

Substance | Kd (LC3B (Homo sapiens)) | Kd [1]
SQSTM1/p62 (from UniProt Q13501) | 1.5 µM | 
Tubulin Polymerization Promoting Protein (TPPP/p25), human recombinant with hexaHis tag (from UniProt O94811 1-219) (natural protein; other documents disagree on this pair) |  | 0.0215 µM
